Measurements taken from paper PMC11663931.

What was measured:
[1] = target: human recombinant RetGC1 (retinal membrane guanylyl cyclase 1) (human) (UniProt Q02846)
[2] = target: human recombinant RetGC1 (retinal membrane guanylyl cyclase 1) (human) (UniProt Q02846); remark: listed apart in the source

Sequence of UniProt Q02846 (Q02846 52-1103): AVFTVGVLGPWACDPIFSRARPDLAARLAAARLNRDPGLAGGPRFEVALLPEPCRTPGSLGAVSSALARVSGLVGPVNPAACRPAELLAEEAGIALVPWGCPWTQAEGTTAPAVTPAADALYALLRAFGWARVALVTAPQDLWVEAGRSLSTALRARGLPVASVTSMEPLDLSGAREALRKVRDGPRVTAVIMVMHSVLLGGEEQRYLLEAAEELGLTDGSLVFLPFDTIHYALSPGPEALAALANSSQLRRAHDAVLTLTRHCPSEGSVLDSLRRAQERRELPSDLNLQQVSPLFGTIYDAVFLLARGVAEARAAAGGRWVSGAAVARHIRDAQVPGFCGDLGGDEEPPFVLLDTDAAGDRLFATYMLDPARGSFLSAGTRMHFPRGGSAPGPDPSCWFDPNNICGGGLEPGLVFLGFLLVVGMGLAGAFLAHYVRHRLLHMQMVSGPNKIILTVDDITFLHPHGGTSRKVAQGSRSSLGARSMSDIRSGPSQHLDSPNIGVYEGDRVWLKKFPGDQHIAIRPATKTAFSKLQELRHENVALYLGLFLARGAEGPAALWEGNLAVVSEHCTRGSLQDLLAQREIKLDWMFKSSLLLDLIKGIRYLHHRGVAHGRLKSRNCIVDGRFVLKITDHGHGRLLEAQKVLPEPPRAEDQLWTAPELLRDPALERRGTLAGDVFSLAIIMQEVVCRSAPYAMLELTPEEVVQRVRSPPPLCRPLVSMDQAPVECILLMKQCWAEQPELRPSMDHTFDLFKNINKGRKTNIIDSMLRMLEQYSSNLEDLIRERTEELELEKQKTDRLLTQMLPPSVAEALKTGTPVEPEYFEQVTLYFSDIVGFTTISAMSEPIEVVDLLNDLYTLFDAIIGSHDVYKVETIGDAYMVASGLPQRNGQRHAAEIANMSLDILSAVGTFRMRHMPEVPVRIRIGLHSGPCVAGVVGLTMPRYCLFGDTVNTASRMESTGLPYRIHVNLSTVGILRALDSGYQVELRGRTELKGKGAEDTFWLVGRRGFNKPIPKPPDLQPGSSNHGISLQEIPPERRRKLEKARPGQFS

K1/2 of GCAP1 for activating the guanylyl cyclase activity of recombinant RetGC1, with additional 50 mM NaCl instead of bicarbonate (pilot measurement, not shown) [1]: 2 µM | K1/2 of GCAP1 for activating the guanylyl cyclase activity of recombinant RetGC1 in HEK293 membranes (hyperbolic fit, 0-10 μM GCAP1), with 50 mM NaHCO3 [2]: 2.9 µM | K1/2 of GCAP1 for activating the guanylyl cyclase activity of recombinant RetGC1 in HEK293 membranes (hyperbolic fit, 0-10 μM GCAP1), without NaHCO3 [2]: 1.47 µM
B1: purified myristoylated bovine GCAP1 (guanylyl cyclase activating protein 1) (natural protein)
chain: MGNIMDGKSVEELSSTECHQWYKKFMTECPSGQLTLYEFRQFFGLKNLSPWASQYVEQMFETFDFNKDGYIDFMEYVAALSLVLKGKVEQKLRWYFKLYDVDGNGCIDRDELLTIIRAIRAINPCSDSTMTAEEFTDTVFSKIDVNGDGELSLEEFMEGVQKDQMLLDTLTRSLDLTRIVRRLQNGEQDEEGASGRETEAAEADG
modifications: N-myristoylated
